This is an account of results in PMC7926377.

The target in test [1] is Met-Gly-SplF-His6 (S. aureus strain 8325-4) (UniProt Q2FXC8).
The target in test [2] is T1, His6-SplF (S. aureus strain 8325-4) (UniProt Q2FXC8).
T1 sequence: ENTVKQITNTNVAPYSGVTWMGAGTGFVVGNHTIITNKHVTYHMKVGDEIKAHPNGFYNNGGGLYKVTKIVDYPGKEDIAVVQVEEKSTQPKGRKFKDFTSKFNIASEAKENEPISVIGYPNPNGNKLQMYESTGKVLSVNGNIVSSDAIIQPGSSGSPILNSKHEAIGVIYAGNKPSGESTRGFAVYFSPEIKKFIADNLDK

Test [3] concerns the target T2, SplF-His6 (S. aureus strain 8325-4) (UniProt Q2FXC8).
T2 sequence: T1 sequence

ABZ-Tyr-Met-Leu-Ser-ANB-NH2 (peptide): the KM of ABZ-Tyr-Met-Leu-Ser-ANB-NH2 hydrolysis (Michaelis-Menten fit, PBS, 37 °C) in test [1] is 18.2 µM; in test [2] it was 21.4 µM; in test [3], 30.8 µM.
